# Measurements from paper PMC6713926.
# Where “and” joins values, the source holds several entries; their conditions need not be identical. Equal values may be shown once.
# Biological target: Biotinylated C3b (human) (UniProt P01024)
# Assay: BLI; biotinylated C3b on streptavidin sensors; FPht variants at 100 to 1.56 μg/mL, 60 s steps; 30°C; 20 mM MES pH 6.0, 100 mM NaCl, 0.05% Tween, 1 mg/mL BSA; steady state 1:1 fit (for WT also kinetic analysis)
# Biotinylated C3b (human), sequence (P01024 23-667, chain 1 of 2): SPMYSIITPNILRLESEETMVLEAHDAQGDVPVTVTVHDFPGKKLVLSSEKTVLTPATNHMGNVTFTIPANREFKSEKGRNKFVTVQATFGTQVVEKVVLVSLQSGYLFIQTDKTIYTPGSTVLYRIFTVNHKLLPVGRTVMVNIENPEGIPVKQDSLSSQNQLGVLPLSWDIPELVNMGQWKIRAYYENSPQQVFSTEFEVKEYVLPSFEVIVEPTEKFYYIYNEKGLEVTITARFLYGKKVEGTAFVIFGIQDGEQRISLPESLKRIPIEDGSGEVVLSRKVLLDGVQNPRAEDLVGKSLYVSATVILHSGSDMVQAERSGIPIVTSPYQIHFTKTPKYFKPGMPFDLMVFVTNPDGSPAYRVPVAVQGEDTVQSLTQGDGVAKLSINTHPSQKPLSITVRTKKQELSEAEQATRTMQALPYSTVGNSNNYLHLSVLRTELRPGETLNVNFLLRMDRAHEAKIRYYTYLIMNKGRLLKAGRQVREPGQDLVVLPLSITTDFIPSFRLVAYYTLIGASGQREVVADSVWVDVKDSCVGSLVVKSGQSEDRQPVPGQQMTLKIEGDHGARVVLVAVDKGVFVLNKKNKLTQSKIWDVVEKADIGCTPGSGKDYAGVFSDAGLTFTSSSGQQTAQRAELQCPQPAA
# Biotinylated C3b (human), sequence (P01024 749-1663, chain 2 of 2): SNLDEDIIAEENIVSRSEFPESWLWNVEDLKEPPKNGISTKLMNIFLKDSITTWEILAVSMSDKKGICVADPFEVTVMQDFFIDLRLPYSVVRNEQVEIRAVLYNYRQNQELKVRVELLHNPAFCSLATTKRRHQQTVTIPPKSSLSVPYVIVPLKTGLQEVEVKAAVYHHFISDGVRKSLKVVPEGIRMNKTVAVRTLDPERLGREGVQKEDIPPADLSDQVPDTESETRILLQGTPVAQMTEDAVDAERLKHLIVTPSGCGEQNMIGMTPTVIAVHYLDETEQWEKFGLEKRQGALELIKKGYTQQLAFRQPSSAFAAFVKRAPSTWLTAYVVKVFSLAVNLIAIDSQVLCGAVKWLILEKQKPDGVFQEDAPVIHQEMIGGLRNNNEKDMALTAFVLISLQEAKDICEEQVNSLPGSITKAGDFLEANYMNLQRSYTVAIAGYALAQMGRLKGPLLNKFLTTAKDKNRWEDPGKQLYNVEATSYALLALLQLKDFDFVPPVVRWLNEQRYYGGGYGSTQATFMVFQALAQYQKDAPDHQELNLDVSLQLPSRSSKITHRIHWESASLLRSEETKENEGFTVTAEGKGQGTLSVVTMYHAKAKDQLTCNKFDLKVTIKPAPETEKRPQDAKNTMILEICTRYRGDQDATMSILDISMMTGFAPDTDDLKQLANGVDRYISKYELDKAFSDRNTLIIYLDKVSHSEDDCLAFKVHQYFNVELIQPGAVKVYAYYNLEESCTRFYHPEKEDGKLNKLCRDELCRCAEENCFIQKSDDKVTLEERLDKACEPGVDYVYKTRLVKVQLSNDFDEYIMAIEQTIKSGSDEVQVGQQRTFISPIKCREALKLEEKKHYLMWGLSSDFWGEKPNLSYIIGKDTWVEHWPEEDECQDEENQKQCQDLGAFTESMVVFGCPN
substance,measurement,value
"FPht, monomeric FP head-tail protein from co-expression of FPh and FPt (complex)",Kd,320 nM and 350 nM
